{"source": "paper PMC6328559", "about": "“Structure of the SLy1 SAM homodimer reveals a new interface for SAM domain self-association” (Scientific Reports, 2019)", "proteins": {"B1": {"name": "SLy1 SAM domain construct SAMlg (SLy1 residues G249-E321 preceded by a glycine-proline tag) (domain or fragment, mouse)", "chain": "GPGKRPKPKTLHELLERIGLEEHTSTLLLNGYQTLEDFKELRETHLNELNIMDPQHRAKLLTAAELLLDYDTGSE", "notes": "glycine-proline left from the tag after PreScission cleavage; SLy1 (SASH3), murine, UniProtKB Q8K352, residues 249-321; 75 residues; In MST 60 nM of the protein carried amine-reactive Alexa Fluor 488; For DOSY the protein was 15N labelled; also called N-terminally extended SLy1 SAM domain construct; source: E. coli BL21(DE3), GST fusion, purified (Glutathione Sepharose, PreScission cleavage, …)"}}, "key": {"[1]": {"biological_target": "the molecule itself", "experiment": "MST; Alexa Fluor 488 labelled protein kept constant (SAMwt 70 nM, SAMlg 60 nM), total protein varied (SAMwt 1.1-824 µM, SAMlg 0.2-250 µM); standard buffer pH 6.4, room temperature; fit to a monomer-dimer equilibrium; dimer to monomers"}, "[2]": {"biological_target": "the molecule itself", "experiment": "AUC; sedimentation equilibrium, 30 °C, standard buffer (50 mM potassium phosphate, 20 mM NaCl, 0.1 mM EDTA, pH 6.4) without NaN3; three loading concentrations (SAMwt 60, 120, 300 µM; SAMlg 31, 64, 98 µM) at several speeds; global fit to a monomer-dimer equilibrium; dimer to monomers"}}, "data": [{"protein": "B1", "values": [{"measurement": "Kd", "setting": "[1]", "value": "5.4 ± 1.4", "unit": "µM"}, {"measurement": "Kd", "setting": "[2]", "value": 2200, "unit": "nM"}, {"measurement": "stoichiometry N", "setting": "[2]", "value": 2}]}]}
